Reference: patent US20050244416A1

Target: melanoma-associated proteoglycan expressed on M21 and SKMel63 melanoma cells (UniProt Q6UVK1)
Experiment: cell-based or functional assay

Sequence of UniProt Q6UVK1 (Q6UVK1 30-2322 limits assumed): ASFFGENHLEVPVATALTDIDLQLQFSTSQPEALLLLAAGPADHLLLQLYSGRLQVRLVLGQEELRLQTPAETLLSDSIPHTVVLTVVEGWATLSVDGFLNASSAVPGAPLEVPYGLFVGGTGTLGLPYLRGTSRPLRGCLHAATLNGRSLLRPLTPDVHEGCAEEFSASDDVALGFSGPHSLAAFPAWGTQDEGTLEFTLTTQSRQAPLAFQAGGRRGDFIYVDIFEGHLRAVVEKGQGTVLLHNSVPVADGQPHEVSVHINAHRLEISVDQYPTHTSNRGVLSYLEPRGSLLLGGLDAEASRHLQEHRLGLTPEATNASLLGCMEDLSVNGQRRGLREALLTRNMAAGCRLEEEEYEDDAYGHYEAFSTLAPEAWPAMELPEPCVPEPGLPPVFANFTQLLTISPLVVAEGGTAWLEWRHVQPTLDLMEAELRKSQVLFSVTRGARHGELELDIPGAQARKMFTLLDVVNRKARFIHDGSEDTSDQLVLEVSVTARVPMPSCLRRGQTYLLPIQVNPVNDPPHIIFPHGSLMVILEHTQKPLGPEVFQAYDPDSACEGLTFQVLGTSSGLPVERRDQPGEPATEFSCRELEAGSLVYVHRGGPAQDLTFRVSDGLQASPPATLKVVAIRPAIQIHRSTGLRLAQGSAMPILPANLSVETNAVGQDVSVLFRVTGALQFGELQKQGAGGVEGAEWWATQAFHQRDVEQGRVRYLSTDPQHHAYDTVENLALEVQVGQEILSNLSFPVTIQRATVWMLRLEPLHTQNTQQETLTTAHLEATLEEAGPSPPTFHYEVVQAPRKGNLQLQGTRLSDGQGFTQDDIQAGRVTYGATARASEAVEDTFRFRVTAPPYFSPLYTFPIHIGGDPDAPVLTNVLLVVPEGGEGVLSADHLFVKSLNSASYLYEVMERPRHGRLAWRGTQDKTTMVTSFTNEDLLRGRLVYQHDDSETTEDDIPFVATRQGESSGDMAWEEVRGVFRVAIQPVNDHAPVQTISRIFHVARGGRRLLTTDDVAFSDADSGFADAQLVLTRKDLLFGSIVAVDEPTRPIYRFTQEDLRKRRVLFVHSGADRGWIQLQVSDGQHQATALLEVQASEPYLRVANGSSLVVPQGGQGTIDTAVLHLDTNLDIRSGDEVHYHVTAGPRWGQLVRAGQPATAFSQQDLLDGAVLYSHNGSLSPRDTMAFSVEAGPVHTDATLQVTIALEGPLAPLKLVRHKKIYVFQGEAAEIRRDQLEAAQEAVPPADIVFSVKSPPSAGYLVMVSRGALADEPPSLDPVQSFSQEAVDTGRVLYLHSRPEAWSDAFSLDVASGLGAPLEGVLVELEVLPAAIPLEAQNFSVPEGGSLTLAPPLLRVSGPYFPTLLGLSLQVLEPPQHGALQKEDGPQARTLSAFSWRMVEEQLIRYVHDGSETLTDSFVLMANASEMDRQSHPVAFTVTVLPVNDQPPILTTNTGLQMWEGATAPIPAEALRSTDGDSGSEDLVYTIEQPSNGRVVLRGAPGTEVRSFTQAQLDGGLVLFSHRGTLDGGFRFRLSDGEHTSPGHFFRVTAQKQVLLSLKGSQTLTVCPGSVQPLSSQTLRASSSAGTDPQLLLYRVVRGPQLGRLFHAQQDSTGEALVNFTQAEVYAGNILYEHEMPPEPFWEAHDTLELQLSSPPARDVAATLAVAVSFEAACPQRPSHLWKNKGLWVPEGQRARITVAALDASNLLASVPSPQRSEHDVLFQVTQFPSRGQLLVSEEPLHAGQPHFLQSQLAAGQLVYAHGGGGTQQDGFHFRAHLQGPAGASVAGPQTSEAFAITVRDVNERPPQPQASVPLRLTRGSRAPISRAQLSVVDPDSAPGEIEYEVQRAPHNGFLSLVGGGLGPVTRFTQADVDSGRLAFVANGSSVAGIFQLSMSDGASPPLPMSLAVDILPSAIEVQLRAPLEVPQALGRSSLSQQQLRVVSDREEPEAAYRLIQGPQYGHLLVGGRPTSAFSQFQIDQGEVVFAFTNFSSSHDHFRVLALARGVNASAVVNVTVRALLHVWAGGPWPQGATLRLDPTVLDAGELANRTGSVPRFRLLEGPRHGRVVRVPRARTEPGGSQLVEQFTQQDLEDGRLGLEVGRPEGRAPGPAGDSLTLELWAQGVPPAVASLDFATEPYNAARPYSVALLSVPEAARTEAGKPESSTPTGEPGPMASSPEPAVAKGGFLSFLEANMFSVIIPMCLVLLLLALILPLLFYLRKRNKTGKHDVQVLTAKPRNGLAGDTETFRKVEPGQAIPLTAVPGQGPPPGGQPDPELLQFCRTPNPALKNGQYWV

- T cell proliferation (3H-thymidine uptake) of PBMC in the presence of irradiated SKMel63 cells: > 300 ng/mL
Substance: chemically hybridized bispecific F(ab')2 fragment with melanoma (9.2.27) and CD28 (9.3) specificity (cM28) (bispecific antibody)
